Literature values in PMC3749792.

What was measured:
Assay in all cases: NMR
Details in all cases: RNase T1, presumably free unmodified enzyme (not stated explicitly)
His92 = His92 (UniProt position 118, AGVITHTGASG)
His27 = His27 (UniProt position 53, AGYQLHEDGET)
His40 = His40 (UniProt position 66, SNSYPHKYNNY)

Ribonuclease T1 (RNase T1) (Aspergillus oryzae)
pKa (His92): 7.80
pKa (His27): 7.26
pKa (His40): 7.92
